{"source": "FireProtDB (doi:10.1038/12277)", "settings": "Escherichia coli (strain K12), pH 5.5, CD, Potassium phosphate 2 mM, KF 5 mM, reversible: yes, whole UniProt chain shown", "data": [{"protein": "Ribonuclease HI wild type, P0A7Y4 (protein) MLKQVEIFTDGSCLGNPGPGGYGAILRYRGREKTFSAGYTRTTNNRMELMAAIVALEALKEHCEVILSTDSQYVRQGITQWIHNWKKRGWKTADKKPVKNVDLWQRLDAALGQHQIKWEWVKGHAGHPENERCDELARAAAMNPTLEDTGYQVEV", "values": [{"measurement": "denaturant m value", "setting": "25 °C, Urea", "result": 2.1, "unit": "kcal/mol/M"}, {"measurement": "unfolding free energy", "setting": "25 °C, Urea", "result": 40.6, "unit": "kJ/mol"}, {"measurement": "Tm", "setting": "Thermal", "result": 47.8, "unit": "°C"}]}]}
